In US20080267985A1:
Blank lines part the entries; values can stand above or below the binder they belong to.

How the values were obtained:
[1] = molecular target: IgE antibodies from sera of grass pollen allergy sufferers (human); assay: cell-based or functional assay
[2] = molecular target: IgE antibodies from sera of grass pollen allergy sufferers (human); assay: EAST inhibition test, four individual sera, plate-bound nPhl p 1, inhibitor up to 5 µg/ml

- allergenic efficacy from A50 values, basophil activation test (CD203c), against reference nPhl p 1 [1]: 100 to 1000 fold
B1: Phl p 1 NoCys Δ213-220 (histidine fusion protein) (protein, not shown: small tags and cut ends)
chain: IPKVPPGPNITATYGDKWLDAKSTWYGKPTAAGPKDNGGASGYKDVDKPPFSGMTGSGNTPIFKSGRGSGSSFEIKSTKPEASSGEPVVVHITDDNEEPIAAYHFDLSGIAFGSMAKKGDEQKLRSAGEVEIQFRRVKSKYPEGTKVTFHVEKGSNPNYLALLVKFVAGDGDVVAVDIKEKGKDKWIALKESWGAIWRIDTPEVLKGPFTVRGEAKDVIPEGWKADTAYESK

- allergenic efficacy from A50 values, basophil activation test (CD203c), against reference nPhl p 1 [1]: > 1000 fold
B2: Phl p 1 NoCys Δ1-6, 115-119, 213-220 (histidine fusion protein) (protein, not shown: small tags and cut ends)
chain: GPNITATYGDKWLDAKSTWYGKPTAAGPKDNGGASGYKDVDKPPFSGMTGSGNTPIFKSGRGSGSSFEIKSTKPEASSGEPVVVHITDDNEEPIAAYHFDLSGIAFGSDEQKLRSAGEVEIQFRRVKSKYPEGTKVTFHVEKGSNPNYLALLVKFVAGDGDVVAVDIKEKGKDKWIALKESWGAIWRIDTPEVLKGPFTVRGEAKDVIPEGWKADTAYESK

- percent of the maximum inhibitory action of nPhl p 1 [2]: 20 to 50%
B3: Phl p 1 NoCys (histidine fusion protein) (protein, not shown: small tags and cut ends)
chain: IPKVPPGPNITATYGDKWLDAKSTWYGKPTAAGPKDNGGASGYKDVDKPPFSGMTGSGNTPIFKSGRGSGSSFEIKSTKPEASSGEPVVVHITDDNEEPIAAYHFDLSGIAFGSMAKKGDEQKLRSAGEVEIQFRRVKSKYPEGTKVTFHVEKGSNPNYLALLVKFVAGDGDVVAVDIKEKGKDKWIALKESWGAIWRIDTPEVLKGPFTVRYTTEGGTKGEAKDVIPEGWKADTAYESK
